Measured values published in US9073973B2, “Dye conjugates of template-fixed peptidomimetics” (Polyphor LTD., priority 2005, dated 2015).
Numbered stars: 1 amine (or outer) side, 2 acyl side, 3 side chain; on linkers, the order of the positions; unused ones are H or OH. Bridge positions count the residues as written; N and C are the ends. Square brackets hold non-standard residues; d marks the D form. Primed or numbered codes have the meaning given here. Side chains are listed from the residue outwards. Peptide text beside a SMILES is read from it. * marks the point of attachment. FITC′ = 5(6)-fluoresceinthioureido on Lys N-epsilon (Lys(FITC)); Pro(trans-4-NH2) = O=C([C@@H]1C[C@@H](N[*:3])CN1[*:1])[*:2]; 5FAM = O=C1OC2(c3ccc(O)cc3Oc3cc(O)ccc32)c2ccc(C(=O)*)cc21; Dansyl = CN(C)c1cccc2c(S(=O)(=O)*)cccc12; 2Nal = N[C@@H](Cc1ccc2ccccc2c1)C(=O)O; Cit = NC(=O)NCCC[C@H](N)C(=O)O; Ahx = NCCCCCC(=O)O

Columns and labels:
CXCR4 expressing cells = molecular target: T1, CXCR4 expressing cells (Homo sapiens, UniProt P61073); test: FACS analysis, labeling of CXCR4 expressing cells; type: binding; conditions: FIG. 1; FACS fluorescence intensity at 530 nm, 10,000 cells
T1 construct: expressed in transfected cells; host or cells: 300-19 cells (mouse pre-B), CXCR4 transfected
T1 sequence (P61073 whole entry): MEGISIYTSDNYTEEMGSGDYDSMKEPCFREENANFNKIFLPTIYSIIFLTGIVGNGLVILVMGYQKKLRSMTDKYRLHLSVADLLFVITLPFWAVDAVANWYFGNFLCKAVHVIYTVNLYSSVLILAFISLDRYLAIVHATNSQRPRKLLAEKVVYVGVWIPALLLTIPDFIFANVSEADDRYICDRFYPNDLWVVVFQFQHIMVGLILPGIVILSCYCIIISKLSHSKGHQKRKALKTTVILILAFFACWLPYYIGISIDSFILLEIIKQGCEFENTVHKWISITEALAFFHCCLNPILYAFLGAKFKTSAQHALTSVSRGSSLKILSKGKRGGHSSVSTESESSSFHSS
Method: (§1) CXCR4 expressing cells (5×10^6/ml) [see references 1, 2 and 3, below] were incubated for 1 hour at 4° C. in a buffer containing HBSS+1% BSA with or without peptidomimetic-dye conjugates at the appropriate concentrations. After this incubation, the cells were washed twice in the same buffer and resuspended at 4×10^6/ml in PBS and kept on ice until measurements were made. All measurements were made on a BD FACSCalibur™ instrument [see ref 4 below] at a wavelength of 530 nm and a total of 10,000 events were counted for each condition. Unlabeled CXCR4 cells and untransfected 300-19 cells were used to establish an appropriate gate for scoring positive and negative events. Four-parameter curve fitting was made from plots of % gated cells vs. concentration of fluorescent compound using Grafit (Erithacus Software).
(§2) The dotted line plot is the histogram obtained from the CXCR4 expressing cells incubated with the compound. The shift to the right on the intensity scale indicates a ˜5-fold increase in fluorescence with >80% of the cells being positive for peptidomimetic-dye conjugates.

[1] = tested on: untransfected 300-19 cells; test: FACS analysis, untransfected cells (non-specific binding); design: species or system mouse; conditions: FIG. 1; FACS at 530 nm, 10,000 cells; background/non-specific binding
Method: as §1, §2

[2] = tested on: human red blood cells (hRBC); test: Hemolysis; type: cell-based; conditions: percent hemolysis; 100 μM peptide, 20% v/v hRBC, 1 hour at 37° C.
Method: The peptides were tested for their hemolytic activity against human red blood cells (hRBC). Fresh hRBC were washed three times with phosphate buffered saline (PBS) by centrifugation for 10 min at 2000×g. Peptides at a concentration of 100 μM were incubated with 20% v/v hRBC for 1 hour at 37° C. The final erythrocyte concentration was approximately 0.9×10^9 cells per ml. A value of 0% resp. 100% cell lysis was determined by incubation of the hRBC in the presence of PBS alone and respectively 0.1% Triton X-100 in H2O. The samples were centrifuged and the supernatant was 20-fold diluted in PBS buffer and the optical density (OD) of the sample at […] was measured. The 100% lysis value (0D540H20) gave an OD540 of approximately 1.3-1.8. Percent hemolysis was calculated as follows: (0D540peptide/OD540H20)×100%.

HELA cells = test: Cytotoxicity assay (MTT reduction); type: cell-based; conditions: 48 hours incubation, peptide 12.5, 25 and 50 μM
Method: The cytotoxicity of the peptides to HELA cells (Acc57) and COS-7 cells (CRL-1651) was determined using the MTT reduction assay [see ref. 5 and 6, below]. Briefly the method was as follows: HELA cells and COS-7 cells were seeded at 7.0·10^3 and, respectively, 4.5·10^3 cells per well and grown in 96-well microtiter plates for 24 hours at 37° C. at 5% CO2. At this point, time zero (Tz) was determined by MTT reduction (see below). The supernatant of the remaining wells was discarded, and fresh medium and the peptides in serial dilutions of 12.5, 25 and 50 μM were pipetted into the wells. Each peptide concentration was assayed in triplicate. Incubation of the cells was continued for 48 hours at 37° C. at 5% CO2. Wells were then washed once with PBS, and subsequently 100 μl MTT reagent (0.5 mg/mL in medium RPMI1640 and, respectively, DMEM) was added to the wells. This was incubated at 37° C. for 2 hours and subsequently the medium was aspirated and 100 μl isopropanol was added to each well. The absorbance at 595 nm of the solubilized product was measured (OD595peptide). For each concentration averages were calculated from triplicates. The percentage of growth was calculated as follows: (OD595peptide-OD595Tz-OD595Empty well)/(OD595Tz-OD595Empty well)×100% and was plotted for each peptide concentration. […]

human CXCR4 [3] = molecular target: T2, human CXCR4 (human, UniProt P61073 1-352); test: cell-based or functional assay
T2 sequence (P61073 whole entry): as above

human CXCR4 [4] = molecular target: T2, human CXCR4; test: FACS at 530 nm, CXCR4 expressing cells against untransfected cells incubated with the dye conjugate
Method: as §1, with “(5 ×10^6/ml)” for “(5×10^6/ml)”, “4 ×10^6/ml” for “4×10^6/ml”
The dotted line plot is the histogram obtained from the CXCR4 expressing cells incubated with the compound. The shift to the right on the intensity scale indicates a ~5-fold increase in fluorescence with >80% of the cells being positive for peptidomimetic-dye conjugates.

## N=C(N)NCCC[C@@H]1NC(=O)[C@@H]2CSSC[C@H](NC(=O)[C@H](Cc3c[nH]c4ccccc34)NC(=O)[C@H](CCCNC(=N)N)NC(=O)[C@H](CCCNC(=N)N)NC(=O)[C@H]3CCCN3C(=O)CNC1=O)C(=O)N[C@@H](Cc1ccc(O)cc1)C(=O)N[C@@H](CCCNC(N)=O)C(=O)N[C@@H](CCC(N)=O)C(=O)N1CCC[C@@H]1C(=O)N1C[C@H](NC(=O)CCCCCNC(=O)c3ccc4c(c3)C(=O)OC43c4ccc(O)cc4Oc4cc(O)ccc43)C[C@H]1C(=O)N[C@@H](Cc1ccc(O)cc1)C(=O)N[C@@H](CCCNC(=N)N)C(=O)N[C@@H](CCCNC(N)=O)C(=O)N2 [Example 4] (cyclo(CRG[dP]RRWCY[Cit]Q[dP][Pro(trans-4-NH2)]([Ahx-5FAM])YR[Cit]); disulfide 1-8)
CXCR4 expressing cells
  increase in fluorescence (CXCR4 expressing vs untransfected cells): ~5 fold
[1]
  cells binding compound (untransfected cells): 0.7%

## CN(C)c1cccc2c(S(=O)(=O)NCCCC[C@@H]3NC(=O)[C@H](CCCNC(N)=O)NC(=O)[C@H](Cc4ccc(O)cc4)NC(=O)[C@@H]4CSSC[C@H](NC(=O)[C@H](CCCNC(N)=O)NC(=O)[C@H](CCCNC(=N)N)NC(=O)[C@H](Cc5ccc(O)cc5)NC(=O)[C@@H]5CCCN5C(=O)[C@H]5CCCN5C3=O)C(=O)N[C@@H](CCCNC(=N)N)C(=O)NCC(=O)N3CCC[C@@H]3C(=O)N[C@@H](CCCNC(=N)N)C(=O)N[C@@H](CCCNC(=N)N)C(=O)N[C@@H](Cc3c[nH]c5ccccc35)C(=O)N4)cccc12 [Example 1] (cyclo(YR[Cit]CRG[dP]RRWCY[Cit]K(Dansyl)[dP]P); disulfide 4-11)
[2]
  Hemolysis at 100 μM: 0
HELA cells
  Cytotoxicity LC50/GI50 Hela cells: 31

B1: Example 5 (peptide)
peptide: cyclo(YRKCRG[dP]RRWCY[Cit]Q)
modifications: disulfide 4-11; not fully specified (residue 3, C-terminus)
Human CXCR4 [3]
  IC50 (nM) Ca2+ assay (calcium mobilization induced by 10 nM SDF-1): 4.9 nM

B2: Example 13 (peptide)
peptide: cyclo(HHYCRA[dP]FRFCYQK(FITC′))
modifications: disulfide 4-11; not fully specified (C-terminus)
Human CXCR4 [3]
  IC50 (nM) Ca2+ assay (calcium mobilization induced by 10 nM SDF-1): 29 nM

B3: Example 14 (peptide)
peptide: cyclo(SHYCRA[dP]FRFCYQK(FITC′))
modifications: disulfide 4-11; not fully specified (C-terminus)
Human CXCR4 [3]
  IC50 (nM) Ca2+ assay (calcium mobilization induced by 10 nM SDF-1): 30.4 nM

B4: Example 8 (peptide)
peptide: cyclo(YR[Cit]CRG[dP]RRWCYKQ)
modifications: disulfide 4-11; not fully specified (residue 13, C-terminus)
Human CXCR4 [3]
  IC50 (nM) Ca2+ assay (calcium mobilization induced by 10 nM SDF-1): 9.7 nM

B5: Example 9 (peptide)
peptide: cyclo(YK[Cit]CRG[dP]RRWCY[Cit]Q)
modifications: disulfide 4-11; not fully specified (residue 2, C-terminus)
Human CXCR4 [3]
  IC50 (nM) Ca2+ assay (calcium mobilization induced by 10 nM SDF-1): 500 nM

B6: Example 7 (peptide)
peptide: cyclo(YRTCRG[dP]RR[2Nal]CY[Cit]K(FITC′))
modifications: disulfide 4-11; not fully specified (C-terminus)
Human CXCR4 [3]
  IC50 (nM) Ca2+ assay (calcium mobilization induced by 10 nM SDF-1): 0.9 nM

B7: Example 18 (peptide)
peptide: cyclo(YHYCSA[dP]FRYCYQK(FITC′))
modifications: disulfide 4-11; not fully specified (C-terminus)
Human CXCR4 [3]
  IC50 (nM) Ca2+ assay (calcium mobilization induced by 10 nM SDF-1): > 500 nM

B8: Example 15 (peptide)
peptide: cyclo(YRTCRG[dP]RRYCYQK(FITC′))
modifications: disulfide 4-11; not fully specified (C-terminus)
Human CXCR4 [3]
  IC50 (nM) Ca2+ assay (calcium mobilization induced by 10 nM SDF-1): 6 nM

B9: Example 11 (peptide)
peptide: cyclo(HHQCSA[dP]FRYCYQK(FITC′))
modifications: disulfide 4-11; not fully specified (C-terminus)
Human CXCR4 [3]
  IC50 (nM) Ca2+ assay (calcium mobilization induced by 10 nM SDF-1): 27.5 nM

B10: Example 17 (peptide)
peptide: cyclo(YRYCRA[dP]FRFCYQK(FITC′))
modifications: disulfide 4-11; not fully specified (C-terminus)
Human CXCR4 [3]
  IC50 (nM) Ca2+ assay (calcium mobilization induced by 10 nM SDF-1): 21.8 nM

B11: Example 6 (peptide)
peptide: cyclo(YRTCRG[dP]RR[2Nal]CY[Cit]K)
modifications: disulfide 4-11; not fully specified (residue 14, C-terminus)
Human CXCR4 [3]
  IC50 (nM) Ca2+ assay (calcium mobilization induced by 10 nM SDF-1): 37.4 nM

B12: Example 1 (peptide)
peptide: cyclo(YR[Cit]CRG[dP]RRWCY[Cit]K(Dansyl))
modifications: disulfide 4-11; not fully specified (C-terminus)
Human CXCR4 [3]
  IC50 (nM) Ca2+ assay (calcium mobilization induced by 10 nM SDF-1): 122 nM

B13: Example 3 (peptide)
peptide: cyclo(KR[Cit]CRG[dP]RRWCY[Cit]Q)
modifications: disulfide 4-11; not fully specified (residue 1, C-terminus)
Human CXCR4 [3]
  IC50 (nM) Ca2+ assay (calcium mobilization induced by 10 nM SDF-1): 16.4 nM

B14: Example 12 (peptide)
peptide: cyclo(LHTCRA[dP]RRYCYQK(FITC′))
modifications: disulfide 4-11; not fully specified (C-terminus)
Human CXCR4 [3]
  IC50 (nM) Ca2+ assay (calcium mobilization induced by 10 nM SDF-1): 6.9 nM

B15: Example 16 (peptide)
peptide: cyclo(YRTCRA[dP]RRYCYQK(FITC′))
modifications: disulfide 4-11; not fully specified (C-terminus)
Human CXCR4 [3]
  IC50 (nM) Ca2+ assay (calcium mobilization induced by 10 nM SDF-1): 4.2 nM

B16: Example 4 (peptide)
peptide: cyclo(YR[Cit]CRG[dP]RRWCY[Cit]Q)
modifications: disulfide 4-11; not fully specified (C-terminus)
notes: the dye sits on the template; also called Ex. 4
Human CXCR4 [4]
  fold increase in fluorescence: ~5 fold
Human CXCR4 [3]
  IC50 (nM) Ca2+ assay (calcium mobilization induced by 10 nM SDF-1): 13.4 nM
